# Data taken from the Immune Epitope Database (IEDB).
# pKd: −log10 of the molar value.
# Experiments:
# HLA-A*01:01 = assay: IEDB peptide-MHC binding, purified MHC/direct/fluorescence; filed as Kd, often an IC50 or EC50 that approximates it; ≥ and ≤ were set here for values at or beyond the usual limits of such assays
# HLA-A*02:01 [1] = assay: as above
# HLA-A*03:01 [2] = assay: as above
# HLA-A*11:01 [3] = assay: as above
# HLA-A*24:03 = assay: as above
# HLA-A*26:01 = assay: as above
# HLA-A*69:01 = assay: as above
# HLA-B*07:02 [4] = assay: as above
# HLA-B*08:01 [5] = assay: as above
# HLA-B*15:01 [6] = assay: as above
# HLA-B*27:05 = assay: as above
# HLA-B*40:01 = assay: as above
# HLA-B*44:02 = assay: as above; conditions: source organism: Vibrio cholerae
# HLA-B*58:01 = assay: as above
# HLA-B*15:03 = assay: IEDB peptide-MHC binding, purified MHC/competitive/radioactivity; filed as Kd, often an IC50 or EC50 that approximates it; ≥ and ≤ were set here for values at or beyond the usual limits of such assays
# HLA-A*02:01 [7] = assay: IEDB peptide-MHC binding, purified MHC/competitive/fluorescence; filed as Kd, often an IC50 or EC50 that approximates it; ≥ and ≤ were set here for values at or beyond the usual limits of such assays; conditions: source organism: Vaccinia virus Copenhagen
# HLA-A*03:01 [8] = assay: IEDB peptide-MHC binding, purified MHC/competitive/radioactivity; filed as Kd, often an IC50 or EC50 that approximates it; ≥ and ≤ were set here for values at or beyond the usual limits of such assays
# HLA-A*11:01 [9] = assay: as above
# HLA-A*31:01 = assay: as above
# HLA-A*33:01 = assay: as above
# HLA-A*68:01 = assay: as above
# HLA-B*07:02 [10] = assay: as above
# HLA-B*35:01 = assay: as above
# HLA-B*51:01 = assay: as above
# HLA-B*53:01 = assay: as above
# HLA-B*54:01 = assay: as above
# HLA-A*30:01 = assay: as above; conditions: source organism: Vaccinia virus WR
# HLA-A*32:01 = assay: as above
# HLA-B*08:01 [11] = assay: as above; conditions: source organism: Vaccinia virus WR
# HLA-B*15:01 [12] = assay: as above
# HLA-B*15:17 = assay: IEDB peptide-MHC binding, purified MHC/direct/fluorescence; filed as Kd, often an IC50 or EC50 that approximates it; ≥ and ≤ were set here for values at or beyond the usual limits of such assays
# HLA-B*57:01 = assay: as above
# HLA-A*23:01 = assay: IEDB peptide-MHC binding, purified MHC/competitive/radioactivity; filed as Kd, often an IC50 or EC50 that approximates it; ≥ and ≤ were set here for values at or beyond the usual limits of such assays; conditions: source organism: Mammarenavirus juninense
# HLA-A*24:02 = assay: as above; conditions: source organism: Mammarenavirus juninense
# HLA-A*29:02 = assay: as above; conditions: source organism: Mammarenavirus juninense
# [13] = source organism: Vibrio cholerae
# [14] = source organism: Vaccinia virus WR
# [15] = source organism: Vaccinia virus Copenhagen
# [16] = source organism: Brucella melitensis
# [17] = source organism: Lake Victoria marburgvirus - Popp
# [18] = source organism: Mammarenavirus lassaense
# [19] = source organism: Mammarenavirus guanaritoense
# [20] = source organism: SARS coronavirus Tor2
# [21] = source organism: Marburg virus - Musoke, Kenya, 1980
# [22] = source organism: Haemophilus influenzae
sequence,measurement,setting,value
AYLLQHLDL,pKd,HLA-A*01:01; [13],≤ 4.70
same,pKd,HLA-A*02:01 [1]; [13],≤ 4.70
same,pKd,HLA-A*03:01 [2]; [13],≤ 4.70
same,pKd,HLA-A*11:01 [3]; [13],≤ 4.70
same,pKd,HLA-A*24:03; [13],8.82
same,pKd,HLA-A*26:01; [13],≤ 4.70
same,pKd,HLA-A*69:01; [13],≤ 4.70
same,pKd,HLA-B*07:02 [4]; [13],≤ 4.70
same,pKd,HLA-B*08:01 [5]; [13],≤ 4.70
same,pKd,HLA-B*15:01 [6]; [13],≤ 4.70
same,pKd,HLA-B*27:05; [13],≤ 4.70
same,pKd,HLA-B*40:01; [13],≤ 4.70
same,pKd,HLA-B*44:02,≤ 4.70
same,pKd,HLA-B*58:01; [13],≤ 4.70
FAAMIIRSF,pKd,HLA-B*15:03; [14],8.88
FLIVSLCPT,pKd,HLA-A*02:01 [7],9.52
same,pKd,HLA-A*03:01 [8]; [15],5.59
same,pKd,HLA-A*11:01 [9]; [15],≤ 4.32
same,pKd,HLA-A*31:01; [15],5.49
same,pKd,HLA-A*33:01; [15],5.18
same,pKd,HLA-A*68:01; [15],5.27
same,pKd,HLA-B*07:02 [10]; [15],4.92
same,pKd,HLA-B*35:01; [15],4.80
same,pKd,HLA-B*51:01; [15],≤ 4.54
same,pKd,HLA-B*53:01; [15],5.21
same,pKd,HLA-B*54:01; [15],6.44
FQRKPFNNI,pKd,HLA-B*15:03; [14],8.05
FQTVNFNNA,pKd,HLA-A*30:01,6.94
same,pKd,HLA-A*32:01; [14],≤ 4.29
same,pKd,HLA-B*08:01 [11],4.80
same,pKd,HLA-B*15:01 [12]; [14],5.09
same,pKd,HLA-B*15:03; [14],6.52
FYSSFVQTF,pKd,HLA-B*15:03; [14],7.41
ILMIFISSF,pKd,HLA-A*32:01; [14],7.06
same,pKd,HLA-B*15:03; [14],7.92
ILMIFISSFL,pKd,HLA-A*03:01 [8]; [14],6.40
same,pKd,HLA-A*11:01 [9]; [14],5.75
same,pKd,HLA-A*31:01; [14],6.20
same,pKd,HLA-A*33:01; [14],6.02
same,pKd,HLA-A*68:01; [14],6.00
same,pKd,HLA-B*07:02 [10]; [14],4.77
same,pKd,HLA-B*35:01; [14],5.52
same,pKd,HLA-B*51:01; [14],5.31
same,pKd,HLA-B*53:01; [14],5.90
same,pKd,HLA-B*54:01; [14],5.82
IQHNFTQIA,pKd,HLA-B*15:03; [14],9.60
KAGVRGWFL,pKd,HLA-B*15:17; [16],5.64
same,pKd,HLA-B*57:01; [16],7.15
same,pKd,HLA-B*58:01; [16],6.65
KSPDVHEDF,pKd,HLA-B*15:17; [17],≤ 4.70
same,pKd,HLA-B*57:01; [17],6.25
same,pKd,HLA-B*58:01; [17],6.04
KSSLNISGY,pKd,HLA-B*15:17; [18],8.80
same,pKd,HLA-B*57:01; [18],6.24
same,pKd,HLA-B*58:01; [18],7.42
KTKETNRIY,pKd,HLA-A*30:01,7.97
same,pKd,HLA-B*15:03; [14],6.76
KWKYENPCK,pKd,HLA-A*30:01,7.82
same,pKd,HLA-A*32:01; [14],≤ 4.23
same,pKd,HLA-B*08:01 [11],≤ 4.29
same,pKd,HLA-B*15:01 [12]; [14],≤ 4.11
same,pKd,HLA-B*15:03; [14],6.53
LPSLIKTILA,pKd,HLA-B*07:02 [10]; [14],5.82
same,pKd,HLA-B*35:01; [14],5.65
same,pKd,HLA-B*51:01; [14],4.96
same,pKd,HLA-B*53:01; [14],5.71
same,pKd,HLA-B*54:01; [14],8.81
LPVYFGSVF,pKd,HLA-B*15:03; [14],6.91
LQNSVVLQF,pKd,HLA-A*32:01; [15],8.13
same,pKd,HLA-B*15:01 [12]; [15],8.82
same,pKd,HLA-B*15:03; [15],8.21
LSVPAAIMM,pKd,HLA-B*15:03; [14],7.16
LYTVKYPNL,pKd,HLA-A*24:03; source organism: Mammarenavirus machupoense,7.52
same,pKd,HLA-A*23:01,6.64
same,pKd,HLA-A*24:02,5.61
same,pKd,HLA-A*29:02,≤ 4.63
MTVVSAVHF,pKd,HLA-A*32:01; [14],5.71
same,pKd,HLA-B*15:03; [14],6.56
NLYSFTIVF,pKd,HLA-B*15:03; [15],7.51
NPLVITTSV,pKd,HLA-B*07:02 [10]; [19],5.88
same,pKd,HLA-B*35:01; [19],5.26
same,pKd,HLA-B*51:01; [19],6.42
same,pKd,HLA-B*53:01; [19],4.85
same,pKd,HLA-B*54:01; [19],7.10
RAYSVPETF,pKd,HLA-B*15:17; [16],≥ 9.00
same,pKd,HLA-B*57:01; [16],7.38
same,pKd,HLA-B*58:01; [16],7.84
SATYATVPF,pKd,HLA-B*15:03; [15],7.92
SPLFLIVAAL,pKd,HLA-B*07:02 [10]; [20],6.61
same,pKd,HLA-B*35:01; [20],5.48
same,pKd,HLA-B*51:01; [20],6.01
same,pKd,HLA-B*53:01; [20],5.98
same,pKd,HLA-B*54:01; [20],6.02
SSNAKNSEW,pKd,HLA-B*15:17; [21],8.57
same,pKd,HLA-B*57:01; [21],6.87
same,pKd,HLA-B*58:01; [21],7.16
TPVEIVVDM,pKd,HLA-B*07:02 [10]; [18],4.78
same,pKd,HLA-B*35:01; [18],8.34
same,pKd,HLA-B*51:01; [18],5.01
same,pKd,HLA-B*53:01; [18],6.80
same,pKd,HLA-B*54:01; [18],≤ 4.11
VLFLQQSIF,pKd,HLA-B*15:03; [14],9.21
VPDIKLDAVL,pKd,HLA-B*07:02 [10]; [14],8.31
same,pKd,HLA-B*35:01; [14],6.85
same,pKd,HLA-B*51:01; [14],6.47
same,pKd,HLA-B*53:01; [14],6.87
same,pKd,HLA-B*54:01; [14],5.79
VYFSPWFFL,pKd,HLA-A*01:01; [22],≤ 4.70
same,pKd,HLA-A*02:01 [1]; [22],≤ 4.70
same,pKd,HLA-A*03:01 [2]; [22],≤ 4.70
same,pKd,HLA-A*11:01 [3]; [22],≤ 4.70
same,pKd,HLA-A*24:03; [22],7.70
same,pKd,HLA-A*26:01; [22],≤ 4.70
same,pKd,HLA-A*69:01; [22],≤ 4.70
same,pKd,HLA-B*07:02 [4]; [22],≤ 4.70
same,pKd,HLA-B*08:01 [5]; [22],≤ 4.70
same,pKd,HLA-B*15:01 [6]; [22],≤ 4.70
same,pKd,HLA-B*27:05; [22],≤ 4.70
same,pKd,HLA-B*40:01; [22],≤ 4.70
same,pKd,HLA-B*58:01; [22],≤ 4.70
